Test results taken from patent US20110300138A1 (published 2011).

Assays:
[1] = target: human TSHR (thyroid stimulating hormone receptor), full length, expressed in transfected CHO cells (human) (UniProt P16473); assay: cell-based or functional assay
[2] = target: thyroid stimulating hormone receptor (TSHR), full length, coated on tubes (human) (UniProt P16473); assay: inhibition of 125I-TSH binding, TSHR coated tubes; antibody 10 µg/mL in assay buffer
[3] = target: human thyroid stimulating hormone receptor (TSHR), full length (human) (UniProt P16473); assay: 125I-K1-70 Fab (competitor) binding to TSHR coated tubes; test sample 10 µg/mL in HBD serum
[4] = target: human thyroid stimulating hormone receptor (TSHR), full length (human) (UniProt P16473); assay: 125I-K1-70 Fab (competitor) binding to TSHR coated tubes; test sample 100 µg/mL in HBD serum
[5] = target: TSHR260-AP (human); assay: TSHR260-AP bridge ELISA (full length TSHR on wells, TSHR260-AP in solution); IgG 100 µg/mL diluted in assay buffer

B1: 5C9 IgG (antibody, from another filing, V domains shown)
VH: EVQLVESGGGLIQPGGSLRLSCAASGFTVSSNYMSWVRQAPGKGLEWVSVTYSGGSTSYADSVKGRFTISRDNSKNTLYLQMNSLRAEDTAVYYCARGGRYCSSISCYARSGCDYWGQGTLVTVSS
VL: AIQMTQSPSSLSASVGDRVTITCRASQSISNYLNWYQQKPGKAPKLLIYAASSLQSGVPSRFSGSGSGTDFTLTISSLQPEDFATYYCQQSYSSPSTTFGQGTKLEIK
- % Inhibition of K1-18 IgG stimulation; 10 ng/mL K1-18 IgG + 0.001 µg/mL 5C9 IgG [1]: 19%
- % Inhibition of K1-18 IgG stimulation; 10 ng/mL K1-18 IgG + 0.01 µg/mL 5C9 IgG [1]: 0%
- % Inhibition of K1-18 IgG stimulation; 10 ng/mL K1-18 IgG + 0.1 µg/mL 5C9 IgG [1]: 91%
- % Inhibition of K1-18 IgG stimulation; 10 ng/mL K1-18 IgG + 0.5 µg/mL 5C9 IgG [1]: 99%
- % Inhibition of K1-18 IgG stimulation; 10 ng/mL K1-18 IgG + 1 µg/mL 5C9 IgG [1]: 98%
- % Inhibition of K1-18 IgG stimulation; 10 ng/mL K1-18 IgG + 5 µg/mL 5C9 IgG [1]: 97%
- % Inhibition of K1-18 IgG stimulation; 10 ng/mL K1-18 IgG + 10 µg/mL 5C9 IgG [1]: 97%
- % Inhibition of K1-18 IgG stimulation; 10 ng/mL K1-18 IgG + 50 µg/mL 5C9 IgG [1]: 100%
- % Inhibition of K1-18 IgG stimulation; 10 ng/mL K1-18 IgG + 100 µg/mL 5C9 IgG [1]: 100%
- % Inhibition of K1-18 stimulation; 10 ng/mL K1-18 + 0.001 µg/mL 5C9 IgG [1]: 0%
- % Inhibition of K1-18 stimulation; 10 ng/mL K1-18 + 0.01 µg/mL 5C9 IgG [1]: 25%
- % Inhibition of K1-18 stimulation; 10 ng/mL K1-18 + 0.1 µg/mL 5C9 IgG [1]: 99%
- % Inhibition of K1-18 stimulation; 10 ng/mL K1-18 + 1 µg/mL 5C9 IgG [1]: 99.4%
- % Inhibition of K1-18 stimulation; 10 ng/mL K1-18 + 10 µg/mL 5C9 IgG [1]: 99.6%
- % Inhibition of K1-18 stimulation; 10 ng/mL K1-18 + 100 µg/mL 5C9 IgG [1]: 98.7%
- Inhibition of binding (%) [2]: 40.5%
- Inhibition of binding (%) [3]: 20.7%
- Inhibition of binding (%) [4]: 40.6%
- Mean absorbance at 405 nm (absorbance at 405 nm) [5]: 0.669
